Values of other authors in publication PMC4518449 (Journal of chromatography. B, Analytical technologies in …, 2013).

Details: rapidly cleared by DPP-4

Substance: GLP-1
- half-life in plasma: less than 2 min
